# In patent publication US20220025023A1 (AC IMMUNE, published 2022):
# Where a chain is given by its changes, count along the chain named. Where no end group is shown, it is not given here.
# T1: TP-28 (also: biotinylated, site not given here)
# T1 construct: also called TP-28 peptide
# T1 peptide: CGEDLIIKGISVHIS
# T2: TP-31 (also: biotinylated, site not given here)
# T2 construct: also called TP-31 peptide
# T2 peptide: ERSGRFGGNPGGFGN
# T3: TP-30 (also: biotinylated, site not given here)
# T3 construct: also called TP-30 peptide
# T3 peptide: PKHNSNRQLERSGRF
# T4: TP-26 (also: biotinylated, site not given here)
# T4 construct: also called TP-26 peptide
# T4 peptide: FRAFAFVTFADDQIA
# T5: TP-27 (also: biotinylated, site not given here)
# T5 construct: also called TP-27 peptide
# T5 peptide: ADDQIAQSLCGEDLI
# T6: TP-23 (also: biotinylated, site not given here)
# T6 construct: also called TP-23 peptide
# T6 peptide: TEDMTEDELREFFSQ
# T7: TP-29 (also: biotinylated, site not given here)
# T7 construct: also called TP-29 peptide
# T7 peptide: ISVHISNAEPKHNSN
# T8: TDP-222 peptide (human)
# T8 construct: 8-mer of human TDP-43; same ELISA method as for the biotinylated 15-mers
# T8 peptide: IPKPFRAF
# T9: TDP-211 peptide (human)
# T9 construct: 8-mer of human TDP-43; same ELISA method as for the biotinylated 15-mers
# T9 peptide: FSQYGDVM
# T10: TDP-220 peptide (human)
# T10 construct: 8-mer of human TDP-43; same ELISA method as for the biotinylated 15-mers
# T10 peptide: VFIPKPFR
# T11: TDP-221 peptide (human)
# T11 construct: 8-mer of human TDP-43; same ELISA method as for the biotinylated 15-mers
# T11 peptide: FIPKPFRA
# T12: TDP-218 peptide (human)
# T12 construct: 8-mer of human TDP-43; same ELISA method as for the biotinylated 15-mers
# T12 peptide: MDVFIPKP
# T13: TDP-223 peptide (human)
# T13 construct: 8-mer of human TDP-43; same ELISA method as for the biotinylated 15-mers
# T13 peptide: PKPFRAFA
# T14: TDP-212 peptide (human)
# T14 construct: 8-mer of human TDP-43; same ELISA method as for the biotinylated 15-mers
# T14 peptide: SQYGDVMD
# T15: TDP-219 peptide (human)
# T15 construct: 8-mer of human TDP-43; same ELISA method as for the biotinylated 15-mers
# T15 peptide: DVFIPKPF
# T16: TDP-215 peptide (human)
# T16 construct: same ELISA method as for the biotinylated 15-mers
# T16 peptide: GDVMDVFI
# B1: ACI-7062-406E3-Ab1 (antibody, IgG2a, V domains shown)
# VH: QVTLKESGPAILQPSQTLSLTCSFSGFSLTTYGIGVGWIRQPSGKGLEWLAHIWWNDNKYYNTALKSRLTVSKDTSNNQVFLKIASVDTADTATYYCARVYGNLYYFAYWGQGTTLTVSS
# VL: DVLMTQTPLSLPVSLGDRASISCRSSQSIVHRSGNTYLEWYLQKPGQSPKLLIYKVSNRFSGVPDRFSGSGSGTDFTLKISRVEAEDLGVYYCFQGSHVPTFGAGTKLELKR
# notes: also called 406E3D5; clone 5
# B2: ACI-7062-406E3-Ab2 (antibody, IgG2a, V domains shown)
# VH: B1 VH
# VL: B1 VL
# notes: also called 406E3G10; clone 6
# B3: ACI-7062-416A11-Ab1 (antibody, IgG2a, V domains shown)
# VH: B1 VH with A10G, P14S, T30S, V71I, T92A, A108G
# VL: B1 VL with R32S, H98R
# notes: also called 416A11B3; clone 18
# B4: ACI-7062-410H3-Ab1 (antibody, IgG1, V domains shown)
# VH: DVQLVESGGGLVQPGGSRRLSCAASGFTFSSFGMHWVRQAPEKGLEWVAYIRSGSDIIYYADSVKGRFTISRDNPENTLFLQMTSLRSEDTAMYYCARSGTTVPFDYWGQGTSLTVSS
# VL: DIVMTQSPSSLAMSVGQKVTMSCKSSQSLLNSGNQKNYLAWYQQKPGQSPELLLYFASTRASGVPDRFIGSGSGTDFTLTISSVQAEDLADYFCQQHYSIPLTFGAGTKLELKR
# notes: also called 410H3B9; clone 7
# B5: ACI-7062-412A7-Ab1 (antibody, IgG2b, V domains shown)
# VH: B4 VH
# VL: B4 VL
# notes: also called 412A7B7; clone 9
# Molecular target: T1, TP-28
# Experiment: indirect ELISA, biotinylated 15-mer on streptavidin plate, hybridoma supernatant
# Method: (§1) Serum-free supernatants were harvested from stable hybridomas. The supernatants containing antibodies of interest were then screened by an indirect ELISA assay to determine epitopes. Epitopes were mapped using a library of TDP-43 15-mer peptides. Briefly, 96-well streptavidin-coated 96-well ELISA plates were incubated with 5 μg/mL of biotinylated 15-mer peptides spanning the amino acids (aa) 199-285 of human TDP-43 with 9 aa offset and 6 aa overlap. Plates were washed thoroughly with 0.05% Tween-20/PBS and then blocked with 1% bovine serum albumin (BSA) in 0.05% Tween-20/PBS for 1 hour at 37° C. The antibody contained in the hybridoma supernatant was then added at the indicated dilutions, and incubated for 2 hours at 37° C. after which the plates were washed as described previously. An AP-conjugated anti-mouse IgG secondary antibody (Jackson ImmunoResearch Laboratories, United Kingdom) was added at 1/1000 dilution in 0.05% Tween-20/PBS for 1 hour at 37° C. After the final wash, plates were incubated with pNPP (Sigma-Aldrich, Switzerland) an AP substrate solution, and read at 405 nm using an ELISA plate reader (Tecan).
row,binding result,Binder
1,no binding,B1
2,no binding,B2
3,no binding,B3
4,no binding,B4
5,no binding,B5

# Molecular target: T2, TP-31
# Experiment: as above
# Method: as §1
row,binding result,Binder
1,no binding,B1
2,no binding,B2
3,no binding,B3
4,no binding,B4
5,no binding,B5

# Molecular target: T3, TP-30
# Experiment: as above
# Method: as §1
row,binding result,Binder
1,no binding,B1
2,no binding,B2
3,no binding,B3
4,no binding,B4
5,no binding,B5

# Molecular target: T4, TP-26
# Experiment: as above
# Method: as §1
row,binding result,Binder
1,no binding,B1
2,no binding,B2
3,no binding,B3
4,no binding,B4
5,no binding,B5

# Molecular target: T5, TP-27
# Experiment: as above
# Method: as §1
row,binding result,Binder
1,no binding,B1
2,no binding,B2
3,no binding,B3
4,no binding,B4
5,no binding,B5

# Molecular target: T6, TP-23
# Experiment: as above
# Method: as §1
row,binding result,Binder
1,no binding,B1
2,no binding,B2
3,no binding,B3
4,no binding,B4
5,no binding,B5

# Molecular target: T7, TP-29
# Experiment: as above
# Method: as §1
row,binding result,Binder
1,no binding,B1
2,no binding,B2
3,no binding,B3
4,no binding,B4
5,no binding,B5

# Molecular target: T8, TDP-222 peptide
# Experiment: indirect ELISA, 8-mer peptide library
# Method: as §1
# (§2) Furthermore, antibodies were tested using an indirect ELISA on a peptide library of 8-mer peptides with 7 aa overlap covering the sequence of human TDP-43 from aa 210 to aa 231, using the same ELISA method as describe previously in this section.
row,binding result,Binder
1,no binding,B1
2,no binding,B2
3,no binding,B3
4,no binding,B4
5,no binding,B5

# Molecular target: T9, TDP-211 peptide
# Experiment: indirect ELISA, 8-mer peptide library
# Method: as §1, §2
row,binding result,Binder
1,no binding,B1
2,no binding,B2
3,no binding,B3
4,no binding,B4
5,no binding,B5

# Molecular target: T10, TDP-220 peptide
# Experiment: indirect ELISA, 8-mer peptide library
# Method: as §1, §2
row,binding result,Binder
1,no binding,B1
2,no binding,B2
3,no binding,B3
4,no binding,B4
5,no binding,B5

# Molecular target: T11, TDP-221 peptide
# Experiment: indirect ELISA, 8-mer peptide library
# Method: as §1, §2
row,binding result,Binder
1,no binding,B1
2,no binding,B2
3,no binding,B3
4,no binding,B4
5,no binding,B5

# Molecular target: T12, TDP-218 peptide
# Experiment: indirect ELISA, 8-mer peptide library
# Method: as §1, §2
row,binding result,Binder
1,no binding,B1
2,no binding,B2
3,no binding,B3
4,no binding,B4
5,no binding,B5

# Molecular target: T13, TDP-223 peptide
# Experiment: indirect ELISA, 8-mer peptide library
# Method: as §1, §2
row,binding result,Binder
1,no binding,B1
2,no binding,B2
3,no binding,B3
4,no binding,B4
5,no binding,B5

# Molecular target: T14, TDP-212 peptide
# Experiment: indirect ELISA, 8-mer peptide library
# Method: as §1, §2
row,binding result,Binder
1,no binding,B1
2,no binding,B2
3,no binding,B3
4,no binding,B4
5,no binding,B5

# Molecular target: T15, TDP-219 peptide
# Experiment: indirect ELISA, 8-mer peptide library
# Method: as §1, §2
row,binding result,Binder
1,no binding,B1
2,no binding,B2
3,no binding,B3
4,no binding,B4
5,no binding,B5

# Molecular target: T17, recombinant human full-length TDP-43 (human, UniProt Q13148 1-414)
# T17 construct: Recombinant full-length protein; also called FL TDP-43; recFL TDP-43
# Experiment: SPR affinity (Biacore 8K), antibody captured on anti-mouse IgG, TDP-43 monomer as analyte, single cycle kinetics, 1:1 model
# Method: Binding affinity to FL TDP-43 was evaluated by determining the dissociation constant (KD) using surface plasmon resonance (SPR; Biacore 8K, GE Healthcare Life Sciences). Anti-mouse IgG was immobilized on a CM5 Series S sensor chip (GE Healthcare Life Sciences) by amine coupling. Immobilization of andi-IgG was done at a concentration of 30 μg/ml in 10 mM sodium acetate (pH 5.5) with a flow rate of 10 μl/min for 500 s. The purified antibodies being tested, and the control antibody (2E2-D3), were injected at a concentration of 1 μg/ml at a flow rate of 10 μl/min for 500 s in 10 mM Na-acetate (pH 5.5). To evaluate KDs, recombinant human FL TDP-43 monomer analyte was injected at […] starting from 400 nM and diluting down to 1.6 nM using single cycle kinetics. The protein analyte was injected at a flow rate of 20 μl/min for 600 s contact time and a 1200 s dissociation phase, without intermediate regeneration steps. Result obtained from kinetics was evaluated using a 1:1 binding model analysis.
# T17 sequence (Q13148 whole entry): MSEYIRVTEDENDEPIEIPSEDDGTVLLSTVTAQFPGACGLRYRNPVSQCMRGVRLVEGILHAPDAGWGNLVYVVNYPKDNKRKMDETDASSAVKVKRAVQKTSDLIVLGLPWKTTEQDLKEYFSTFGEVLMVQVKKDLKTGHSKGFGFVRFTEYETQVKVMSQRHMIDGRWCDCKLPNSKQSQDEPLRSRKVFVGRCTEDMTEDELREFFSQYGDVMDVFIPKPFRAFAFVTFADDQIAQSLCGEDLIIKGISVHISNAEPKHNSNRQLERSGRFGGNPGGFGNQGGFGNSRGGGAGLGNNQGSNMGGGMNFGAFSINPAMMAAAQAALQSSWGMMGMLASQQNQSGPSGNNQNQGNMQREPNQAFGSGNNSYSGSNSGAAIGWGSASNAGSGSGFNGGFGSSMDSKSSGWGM
row,Kd [nM],Binder
1,193,B1
2,101,B2
3,307,B3
4,242,B4
5,66.1,B5

# Molecular target: T17, recombinant human full-length TDP-43
# Experiment: SPR avidity (Biacore T200), TDP-43 monomer immobilised, antibody as analyte, 1:1 model
# Method: Avidity measurements were performed on an SPR instrument (Biacore T200, GE Healthcare Life Sciences) using CM5 Series S sensor chips. Recombinant human FL TDP-43 monomers or aggregated recombinant human FL TDP-43 was immobilized on a CM5 chip using amine coupling, injecting at a flow rate of 5 μl/min for 420 seconds. Conditions were optimized so that less than 200 RU protein was immobilized. Binding of the antibodies and the control antibody (2E2-D3) were obtained by injecting at: 1.37, 4.11, 12.33, 37, 111, and 333 nM in 1×PBS P+ at a flow rate of 50 μl/min for 90 s contact time and 600 s dissociation phase, with three regeneration cycles of the ligand surface by 10 mM Glycine-HCl (pH 1.7). Kinetics were analyzed using a 1:1 fitting model (see FIG. 8).
row,Kd [nM],Binder
1,0.8,B1
2,0.3,B2
3,2.4,B3
4,6,B4
5,1,B5

# Molecular target: T16, TDP-215 peptide
# Experiment: indirect ELISA, 8-mer peptide library, OD 405 nm
# Method: as §1, §2
row,binding result,Binder
1,binds,B1
2,binds,B2
3,binds,B3
4,binds,B4
5,binds,B5
